This is an account of results in paper PMC5986765 (Cell Discovery, 2018).

First the molecules themselves.
B1: truncated chicken ASIC1a (residues 14-463), cASIC1a^ΔNC (domain or fragment)
chain: GQPVSIQAFASSSTLHGISHIFSYERLSLKRVVWALCFMGSLALLALVCTNRIQYYFLYPHVTKLDEVAATRLTFPAVTFCNLNEFRFSRVTKNDLYHAGELLALLNNRYEIPDTQTADEKQLEILQDKANFRNFKPKPFNMLEFYDRAGHDIREMLLSCFFRGEQCSPEDFKVVFTRYGKCYTFNAGQDGKPRLITMKGGTGNGLEIMLDIQQDEYLPVWGETDETSFEAGIKVQIHSQDEPPLIDQLGFGVAPGFQTFVSCQEQRLIYLPPPWGDCKATTGDSEFYDTYSITACRIDCETRYLVENCNCRMVHMPGDAPYCTPEQYKECADPALDFLVEKDNEYCVCEMPCNVTRYGKELSMVKIPSKASAKYLAKKYNKSEQYIGENILVLDIFFEALNYETIEQKKAYEVAGLLGDIGGQMGLFIGASILTVLELFDYAYEVIKHR
notes: not shown: His8, N-terminal, cleaved; EGFP, N-terminal, cleaved

Bridge positions count the residues as written; N and C are the ends. Ends that are not written are not given here.

In one data set the target is T1, chicken ASIC1a (cASIC1a) (Gallus gallus, UniProt Q1XA76).
T1 construct: expressed in transfected cells; host or cells: CHO cells, transient transfection, pcDNA3.1/Zeo(+)
T1 sequence (Q1XA76 1-527): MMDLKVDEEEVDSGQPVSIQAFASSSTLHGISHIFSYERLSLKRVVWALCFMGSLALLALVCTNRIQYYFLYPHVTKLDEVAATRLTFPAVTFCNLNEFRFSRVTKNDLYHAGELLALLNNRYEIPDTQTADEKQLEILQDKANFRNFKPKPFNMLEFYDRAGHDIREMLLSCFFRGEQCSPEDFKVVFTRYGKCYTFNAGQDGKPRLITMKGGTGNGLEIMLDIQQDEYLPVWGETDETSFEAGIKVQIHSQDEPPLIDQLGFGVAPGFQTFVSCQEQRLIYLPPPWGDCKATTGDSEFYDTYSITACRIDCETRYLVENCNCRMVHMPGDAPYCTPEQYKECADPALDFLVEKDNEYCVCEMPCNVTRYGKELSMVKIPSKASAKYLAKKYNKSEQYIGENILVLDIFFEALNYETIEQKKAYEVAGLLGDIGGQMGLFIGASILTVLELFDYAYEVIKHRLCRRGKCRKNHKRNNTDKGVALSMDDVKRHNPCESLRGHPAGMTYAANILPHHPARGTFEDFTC
The data set can be described thus: whole-cell patch clamp in CHO cells, inhibition of chicken ASIC1a. The data set is classed as cell-based. The note with it: for effect of mambalgin-1 point mutants on wild-type cASIC1a: 500 nM, means ± S.E., t-test versus WT, n = 4–13, bar graph Fig. 3e, values not given. The text has this:
(§1) Fig. 1 Chemical synthesis and bioactivity analysis of mambalgin-1. a Synthetic route of mambalgin-1 and its mutants. b Synthetic mambalgin-1 inhibits recombinant human and chicken ASIC1a (hASIC1a and cASIC1a) channels in CHO cells. After two stable records of acid currents that were elicited by a pH drop from 7.4 to 6.0 for 4 s, synthetic mambalgin-1 was applied at pH 7.4 for 30 s followed by another application during a 4spH drop to 6.0. c Concentration–response curve showing the inhibition of hASIC1a and cASIC1a channels expressed in CHO cells (n = 3–14) by synthetic wild-type mambalgin-1
The coding sequence for wild-type cASIC1a was sub-cloned into the pcDNA3.1/Zeo( + ) vector. All site-directed mutations were generated with overlap PCR and inserted into pcDNA3.1/Zeo(+). The mutants were sequenced to verify that no unwanted mutations had been introduced. Chinese hamster ovary (CHO) cells were cultured in DMEM/F12 medium (Gibco) supplemented with 10% fetal bovine serum (FBS), 100 U/mL penicillin, and 100 U/mL streptomycin at 37 °C in a 5% CO2 incubator. The CHO cells were transferred to 24-well plates for transfection. When the CHO cells reached 90% confluence, they were transfected with 0.6 μg of plasmid encoding EGFP and 0.8 μg of plasmid encoding wild-type or mutant cASIC1a using Lipofectamine 2000 (Invitrogen, USA). After incubation for 5 h, the cells were transferred to poly-L-lysine (Sigma)-coated slides for culture for another 24–48 h in fresh medium. They were then used for the electrophysiological analysis.
For the whole-cell recordings, the bath solution contained 150 mM NaCl, 4 mM KCl, 2 mM CaCl2, 1 mM MgCl2, and 10 mM HEPES (pH 7.4, ~308 mOsm). For acidic solution below pH 6.0, HEPES was replaced by 10 mM MES to buffer solutions. The electrodes were pulled from thick-walled borosilicate glass capillaries with filaments (1.5 mm diameter; Sutter Instruments) on a four-stage puller (P-1000; Sutter, USA) and had resistances of 2–5 MΩ when filled with intracellular solution containing 140 mM KCl, 10 mM NaCl, 5 mM EGTA, 10 mM HEPES, (pH 7.4, ~297 mOsm). All chemicals were obtained from Sigma. The experiments were performed at room temperature with an EPC-10 amplifier (HEKA Electronic) with the data acquisition software PatchMaster. Membrane potential was held at −70 mV in all experiments. Acid-induced currents were recorded by rapidly exchanging local solution from pH 7.4 to acidic pH through a Y-tube perfusion system. Toxins were applied 30 s before the pH decreased and persisted during low pH application. Channels were activated by acid perfusion at least every 2 min to allow for a complete recovery of the channels from desensitization. Recordings in which access resistance or capacitance changed by 10% during the experiment were excluded from data analysis. Mambalgin-1 was added when the currents were stable.
The data were analyzed with Clampfit and SigmaPlot. The dose–response curves used to determine the IC50 values were fitted using the Hill equation: y = 1 + (Imax−1)/(1 + (IC50/x)^h), where y represents the normalized current, Imax represents the control current of ASIC1 detected in each set of experiments; x is the toxin concentration, h is the Hill coefficient, and IC50 is the half-maximal concentration. The results are presented as the means ± standard errors (SE), and n is the number of experiments.

Another data set has as its system ASIC1a. To be noted: cited from earlier work. The text has this: Mambalgin-1 can bind to and stabilize ASICs in a physiologically relevant closed-channel conformation, but the underlying binding and inhibition mechanism remains elusive. […] Previously, a docked structure of the cASIC1a–mambalgin-1 complex was reported[23],[24], following the crystal structure of the cASIC1a–PcTx1 complex. Mambalgin-1 was predicted to insert into the acidic pocket (also known as the acid-sensing pocket) inside t ...

The test system of another data set is mice. To be noted: cited from earlier work. The text has this:
Mambalgin-1, a toxin isolated from black mamba venom, is a disulfide-rich polypeptide consisting of 57 amino acids and belongs to the family of three-finger toxins[31],[38].

The next data set concerns the target T2, human ASIC1a (hASIC1a) (Homo sapiens, UniProt P78348).
T2 construct: expressed in transfected cells; host or cells: CHO cells
T2 sequence (P78348 1-528): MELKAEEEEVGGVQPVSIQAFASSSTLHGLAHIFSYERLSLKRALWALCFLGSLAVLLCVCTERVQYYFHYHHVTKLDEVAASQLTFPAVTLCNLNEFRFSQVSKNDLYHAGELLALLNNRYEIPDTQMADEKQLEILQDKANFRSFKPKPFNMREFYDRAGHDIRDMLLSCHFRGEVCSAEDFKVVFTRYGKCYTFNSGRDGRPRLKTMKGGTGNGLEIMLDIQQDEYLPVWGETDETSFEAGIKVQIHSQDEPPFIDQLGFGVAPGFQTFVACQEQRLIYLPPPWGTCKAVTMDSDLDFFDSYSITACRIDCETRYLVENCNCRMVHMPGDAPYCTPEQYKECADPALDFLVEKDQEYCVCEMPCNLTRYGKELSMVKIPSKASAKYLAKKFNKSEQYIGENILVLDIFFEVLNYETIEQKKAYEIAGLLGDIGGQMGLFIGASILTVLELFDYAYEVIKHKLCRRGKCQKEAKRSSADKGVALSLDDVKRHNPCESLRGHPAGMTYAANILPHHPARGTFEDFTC
The data set can be described thus: whole-cell patch clamp in CHO cells, inhibition of human ASIC1a. It counts as cell-based. To be noted: synthetic mambalgin-1, whole-cell recording at −70 mV, pH drop from 7.4 to 6.0 for 4 s, toxin applied 30 s before at pH 7.4 and during acid, room temperature, Hill fit, mean ± SE, n = 3–14.
Source text: as §1
The coding sequence for wild-type cASIC1a was sub-cloned into the pcDNA3.1/Zeo( + ) vector. […]
For the whole-cell recordings, the bath solution contained 150 mM NaCl, 4 mM KCl, 2 mM CaCl2, 1 mM MgCl2, and 10 mM HEPES (pH 7.4, ~308 mOsm). […] Acid-induced currents were recorded by rapidly exchanging local solution from pH 7.4 to acidic pH through a Y-tube perfusion system. […]
The data were analyzed with Clampfit and SigmaPlot. The dose–response curves used to determine the IC50 values were fitted using the Hill equation: y = 1 + (Imax−1)/(1 + (IC50/x)^h), where y represents the normalized current, Imax represents the control current of ASIC1 detected in each set of experiments; x is the toxin concentration, h is the Hill coefficient, and IC50 is the half-maximal concentration. […]
For orientation: Patch clamp records ionic current or voltage across a cell membrane.

Data set [1] deals with the molecule itself. The data set can be described thus: cryo-EM structure; […] 5.7 Å overall map, 5.4 Å map of the extracellular part; poly-alanine model by rigid-body fitting of crystal structures.
In data set [2] the target is B1. The experiment in a line: cryo-EM structure. To be noted: both partners purified.

With “R28A: mutation of mambalgin-1 in the Finger II region (LKCYQHGKVVTCHRDMKFCYHNTGMPFANLKLILQGCSSSCSETENNKCCSTDRCNK; disulfide (positions not given here); ends not checked; UniProt P0DKR6 22-78, looked up, variant R28A)”, in the data set with chicken ASIC1a (cASIC1a), the “effect of mambalgin-1 point mutants on wild-type cASIC1a” value (shortened to “effect of mambalgin-1 point mutants”) is “perturbed the inhibitory effects of the cASIC1a channel”.

As for “H6A: mutation of mambalgin-1 in the Finger I region (LKCYQAGKVVTCHRDMKFCYHNTGMPFRNLKLILQGCSSSCSETENNKCCSTDRCNK; disulfide (positions not given here); ends not checked; UniProt P0DKR6 22-78, looked up, variant H6A)”, the “effect of mambalgin-1 point mutants” value with chicken ASIC1a (cASIC1a) is reported as “perturbed the inhibitory effects of the cASIC1a channel”.

For “F27A: mutation of mambalgin-1 in the Finger II region (LKCYQHGKVVTCHRDMKFCYHNTGMPARNLKLILQGCSSSCSETENNKCCSTDRCNK; disulfide (positions not given here); ends not checked; UniProt P0DKR6 22-78, looked up, variant F27A)”, the “effect of mambalgin-1 point mutants” value in the data set with chicken ASIC1a (cASIC1a) is given as “perturbed the inhibitory effects of the cASIC1a channel”.

Regarding “PcTx1 (EDCIPKWKGCVNRHGDCCEGLECWKRRRSFEVCVPKTPKT; ends and bridges not checked; cysteine pairing not given here; UniProt P60514 1-40, looked up)”, the “channel states bound, PcTx1” value in the data set on ASIC1a was “binds tightly to the open and desensitized states of ASIC1a”.

Regarding “K8A: mutation of mambalgin-1 in the Finger I region (LKCYQHGAVVTCHRDMKFCYHNTGMPFRNLKLILQGCSSSCSETENNKCCSTDRCNK; disulfide (positions not given here); ends not checked; UniProt P0DKR6 22-78, looked up, variant K8A)”, the “effect of mambalgin-1 point mutants” value with chicken ASIC1a (cASIC1a) was “perturbed the inhibitory effects of the cASIC1a channel”.

Take “Q5A: mutation of mambalgin-1 in the Finger I region (LKCYAHGKVVTCHRDMKFCYHNTGMPFRNLKLILQGCSSSCSETENNKCCSTDRCNK; disulfide (positions not given here); ends not checked; UniProt P0DKR6 22-78, looked up, variant Q5A)”: the “effect of mambalgin-1 point mutants” value with chicken ASIC1a (cASIC1a) was “perturbed the inhibitory effects of the cASIC1a channel”.

Consider “LKCYQHGKVVTCHRDMKFCYHNTGMPFRNLKLILQGCSSSCSETENNKCCSTDRCNK-NH2 (disulfide 3-19, 12-37, 41-49, 50-55) [mambalgin-1]”, for which the “adverse side effects relative to traditional opioid drugs” value in the data set on mice was “fewer adverse side effects than traditional opioid drugs”. Also, the IC50 against human ASIC1a (hASIC1a) is 197 ± 18.7 nM; on chicken ASIC1a (cASIC1a) (synthetic mambalgin-1, whole-cell recording at −70 mV, pH drop from 7.4 to 6.0 for 4 s, toxin applied 30 s before at pH 7.4 and during acid, room temperature, Hill fit, mean ± SE, n = 3–14), 124 ± 20.3 nM.

Consider B1, for which the “stoichiometry N” value in data set [1] is 3.

B2: mambalgin-1 (peptide)
chain: LKCYQHGKVVTCHRDMKFCYHNTGMPFRNLKLILQGCSSSCSETENNKCCSTDRCNK
notes: also called synthetic mambalgin-1; wild-type mambalgin-1
B2: the “stoichiometry N” value in data set [2] was 3 mambalgin-1 per cASIC1a trimer.

In general, IC50 refers to the concentration that inhibits the measured activity by half. A higher IC50 goes with lower potency. Broadly, the stoichiometry N is a count of units in the complex or per binding partner.
